The text below walks through data of patent US20030232325A1 (MOUNT SINAI SCHOOL OF MEDICINE OF NEW YORK UNIVERSITY, published 2003).

The target of assay [1] is T1, NS1-BP fragment (amino acids 347 to 619) expressed from the HeLa cDNA library plasmid p59-1 (activation … (human, UniProt Q9Y6Y0 347-611)).
T1 sequence: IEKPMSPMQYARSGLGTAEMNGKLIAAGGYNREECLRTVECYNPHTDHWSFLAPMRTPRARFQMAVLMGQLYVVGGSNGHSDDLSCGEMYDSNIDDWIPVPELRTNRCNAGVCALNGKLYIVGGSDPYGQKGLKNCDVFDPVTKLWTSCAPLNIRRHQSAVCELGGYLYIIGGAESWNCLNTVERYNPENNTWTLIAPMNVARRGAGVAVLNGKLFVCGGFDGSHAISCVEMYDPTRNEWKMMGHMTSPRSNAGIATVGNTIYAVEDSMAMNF
Put plainly: yeast interaction trap, lacZ reporter.

Assay [2] concerns the target T2, NS1I-1 fragment expressed from the HeLa cDNA library plasmid pK5 (activation domain fusion) (human, UniProt P51659 266-736).
T2 sequence: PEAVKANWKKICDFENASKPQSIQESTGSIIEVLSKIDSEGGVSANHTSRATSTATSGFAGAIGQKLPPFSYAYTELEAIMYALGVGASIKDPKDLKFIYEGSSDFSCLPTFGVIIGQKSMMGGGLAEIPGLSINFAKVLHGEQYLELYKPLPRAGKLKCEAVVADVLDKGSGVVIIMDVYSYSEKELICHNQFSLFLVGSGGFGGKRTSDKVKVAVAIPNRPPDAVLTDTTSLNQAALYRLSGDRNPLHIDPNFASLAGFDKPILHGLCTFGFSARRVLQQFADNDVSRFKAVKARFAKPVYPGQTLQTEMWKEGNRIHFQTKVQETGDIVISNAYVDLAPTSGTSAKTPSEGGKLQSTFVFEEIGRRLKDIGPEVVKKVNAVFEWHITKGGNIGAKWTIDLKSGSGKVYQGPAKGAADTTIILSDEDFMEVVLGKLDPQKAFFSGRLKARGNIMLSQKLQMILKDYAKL
Put plainly: yeast interaction trap, lacZ reporter; pRFHM1 as control bait.

Assay [3] concerns the target T3, rabies virus M protein (form used not stated; discussion of Example 9, data not shown) (rabies virus, UniProt P16287 1-202).
T3 sequence: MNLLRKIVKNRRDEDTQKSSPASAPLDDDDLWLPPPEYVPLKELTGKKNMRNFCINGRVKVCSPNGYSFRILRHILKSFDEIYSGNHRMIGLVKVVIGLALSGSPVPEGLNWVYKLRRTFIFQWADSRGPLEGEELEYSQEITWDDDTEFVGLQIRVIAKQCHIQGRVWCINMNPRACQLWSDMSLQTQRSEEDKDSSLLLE
Put plainly: far-western blot presumably; data not shown.

B1: LexA-bicoid fusion protein (encoded by pRFHM1) (other)
chain: AQPPPDQNFYHHPLPHTHTHPHPHSHPHPHSHPHPHHQHPQLQLPPQFRNPFDLLFDERTGAINYNYIRPYLPNQMPKPEELPDSLVMRRPRRTRTTFTSSQIAELEQHFLQGRYLTAPRLADLSAKLALGTAQVKIWFKNRRRRHKIQSDQHKDQSYE
notes: also called LexA fused to a transcriptionally inert fragment of the Drosophila melanogaster bicoid protein
With B1, the binding result in assay [1] and in assay [2] was “no binding” in each case.

For the molecule TGLPTPWTVRYSKSKKREYFFNPETKHSQWEEPEG (other, domain: WW) [WW domain from ESS 1], in assay [3], the binding result is “no binding”.
